In the DeepSol protein solubility set:

Test: soluble on expression in E. coli; label from the status in PepcDB or PDB records
In the case of “MGSDKIHHHHHHMNADDIRAMIQPAQVHRDVYISDAVYRLEMRHLFTNAWIFVGHDSQTPNKGDYITTQVGDQPVIMVRHTDGEVKVLYNRCPHKGTKIAIDRAGNTGKFFRCPYHAWSFKTDGCLLAIPLKKGYEGTGLSESQNGKGMQAVGAVYNYRGFVFARLAEDGIGFDEFFGGSLSSIDNMVDRAPEGRVEISGPPLRYMHKCNWKMLVENQTDTCHPMVAHESSAGTAVKIYEQMGNPEPRPPAMQIIAPFMSPYEFFEDMGIRTWPNGHGHTGVNMSIHSNYDAIPGYFEAMIESHGEERAKAILDESRHNTVYFPNVMVKAPLTQLRNFIPLGADRTLAESYVYRLVGAPEQLTAMSAMYNRMINAPTSIVGHDDLEMYERAQEGLHAEGMQWVDIRRLHTGPENFETEAVENGTTERQMRNQFHAWAKFMTMSMEDAPGVAAQ”, the “soluble on expression in E. coli” value is reported as “not soluble”. For “MGSDKIHHHHHHMNANQFLKAVSQLQGWRECAFLLALAERSFPNYALFADAVGLKTGGKMRQLLDLAWDMLQKDVADAAIPQLLSKLETLCPNVDEYDAYGVYPAFDFCQLLEQALLNRLNPNKHRATEASQLATRTVMDFVEMSEGEGMDENELVRVFEHHPLLKDDKLFQRDTVMALKKQRTPKEAFLAELRAGAANDGVSNLGISLEG”, the “soluble on expression in E. coli” value was “not soluble”. In the case of “MGSDKIHHHHHHMNDIIKLIKSIIIEMDMEAYIVGGYIRDKLMNPKNSASDLDIAFQGDFEKILDELRKRKIKVSSIKKDSSVYRITVNGYCADISKIKGKNINEDLSKRDFTVNAIALDIKNNKIVDPFDGRVHIKRRILQVIDEKSFEDDAVRILRGIRFYIKYGMHFNGYTEEYIRKHSKNIMKFPRDRVLDEIIHIIHEDENGVFFEVMDQYMILKNILPYMEELKTVGKCKHHLVDAFTHMNTAYHVFKDMKKKYLKVKNINIEEFNKDIGVYNELDYLAFAIFTHDIGKYVSYKKEGQKISFKGHDEKGLEIIEKVCDELKFPNDGKKIVCSVVKNHMYPLMLFKLKEDERKQEEYEFFNKFDQYVPHIIVASFCDVYATTIYIDENNEKDRFTSFISELVVKYREFINLKKIKYIDGNDLIDMGFRGNDIGNILNELNKMLYIEGSKTKKEQQDFVLRMKDKL”, the “soluble on expression in E. coli” value is reported as “not soluble”. For “MGSDKIHHHHHHMNDIKMIRIGITGGTGFLGNRLVELLSKTNTPITCLTRESSNIETIEDKVKVIKGDLSNLESLEDFVKGQDVIVHLAAQVSRTTKKEYYQSNVLGTENLCKAINQYNPECRLINCSSIAAYRIKGWCKLQFTDYAKSKLSADRVVDSYMKTIKATTIIPGIIYGAGNNAFISAIIENLEKGKLFFAKGGEKFAPLSYIDDLCDLFIRAIYNEESVGNKYFGIKYSERGIHDFIRIIASKTYNKAPDAVLSKNKLMAKAVFWQFVYSFFKIKKAPTLSIRMVDIMSINYSLSEEQRTNNLGWEPSVDMEEGVDNALLSYNLKKDSTNRS”, the “soluble on expression in E. coli” value was “not soluble”. For “MGSDKIHHHHHHMNDQKNAAQVGLGLRREMLSEFCESVPEAINFFEVAPENWMTLGGKFGRQFRELTEQHTFYCHGLSLSIGSPEPLDLAFVKNIKTFMDLHQIQIYSEHLSYCSGQGHLYDLMPIPFTDAAVKHVAARVKQVEDILERPLILENVSFYAAPGARMSELEFVNAVLQEADCKLLLDVNNIYVNSINHQYDADTFLQAMPTERIAYLHIAGHYKQAEDLLIDTHGAAINDPVWALLQRCYALHGVKPTLLERDFNVPTTAELLLELNQIHAYQAAAPSSHIQNSAHVVKRIA”, the “soluble on expression in E. coli” value was “not soluble”. With “MGSDKIHHHHHHMNELTEFNARNDLDNELASTVSDILAKAIKEKGKASIAVSGGSTPKGFFSVLSQSDIDWSKVTITLADERWVPIDSEASNTRLVHENLLQNKAEKAKFFHLKQGDELTDETLEDLNVAASKILLPLDVLILGMGEDGHTASLFPCSDQITSGLDETNDAALLKVQPKTAPHQRISFTFASLMTSKNIFLHSCGEGKKTVLTQVLNGDDPFEMPIRAFLQHPSLNTQIFWAP” the “soluble on expression in E. coli” value was “not soluble”. In the case of “MGSDKIHHHHHHMNESERKIVEEFQKETGINFKNEELLFRALCHSSYANEQNQAGRKDVESNEKLEFLGDAVLELFVCEILYKKYPEAEVGDLARVKSAAASEEVLAMVSRKMNLGKFLFLGKGEEKTGGRDRDSILADAFEALLAAIYLDQGYEKIKELFEQEFEFYIEKIMKGEMLFDYKTALQEIVQSEHKVPPEYILVRTEKNDGDRIFVVEVRVNGKTIATGKGRTKKEAEKEAARIAYEKLLKERS”, the “soluble on expression in E. coli” value is reported as “soluble”. In the case of “MGSDKIHHHHHHMNETVSLETREVRFLSVFDFDGTLTYRDSFVPFLRFAFGNRVFVRRMLRMAGPSLAYLCRRIDRDDLKARLIATFLTDVPVHVLEERALAYQNRFWETLMRPHALTAVADQVSSGSTVTICSASPSLLLRPFAEKLGVHLIATELEVVDGVLTGRIVGRNCRRDEKVCRLERHYGPLTQYSLRAWGDSRGDTELLAAALERFWKPFR”, the “soluble on expression in E. coli” value is reported as “not soluble”. In the case of “MGSDKIHHHHHHMNFFEIVNAHLSELSPNEQKLFDYVVTNMGQIKNQSIREVASATFVSTATFLRFVKKIGFSGFSEFTTVIKFTLINRQEAERTTPFVVQQKDYREEYLKNIGESIRVIQPDHLRQVVDRLAQHPDVFFFAKGVSKHAVAYIDYLYTMAGFKTHFPRDHDYRKQALTQVDNDALVFILTYKGSDGEMLDMMSQLVGRPVRPLLVSITEPDNNTIQNLSDINFYIFTDGVTVNGTDISSRISTISVMELILYQYVEDYGGRDFHFQRQLES”, the “soluble on expression in E. coli” value is reported as “not soluble”. For “MGSDKIHHHHHHMNFNELKTFVALVETKHFTKTADRLYISQPTVSLHLKHLEEHFGQSLIHRHTFNKTIEISEAGWIVYRHAKEILHQAIRLEQEIDELEGITRGTLRIAATHTIYEAMLEEMIHDFLLVYPDVSVDARVMNQEQVEQALLHYEIDLGMVEGLHRSHQIEAIPFATDRLRIIGHHHLVPEQATWIYREEGSAARLALETWLQTQAIVPKRIITVYSNRLIKQLIKNGTGISILSERLAGSLLESERFQTYDDSQIDPRMFQFITLKGETTRLSQKWINQHGGSD”, the “soluble on expression in E. coli” value was “not soluble”. For “MGSDKIHHHHHHMNHLNDKVNEIKDNFYGLIGHAYLEKYITKPIVDEDKLRFLYTMLAEKLPKKDTKLFTLSALLVDAALEIHEAVSLHNIQTDPIKKNRQLNVLAGDYYSSLYYYLLADSRHLPIIQVFSHSIQEINEYKMKLYDGKNIDFDEVKNNVDKVDTFLLQNLAEHFQLTTWKKAISVFFHLKRLVHEREAWINGKATPLMKAIVTELFGSNRPVDELKKDDQLQVLELWEEKVEEGKDHLLEHVKALLPKFERFFVDHLNDLFGPDYIHEKVAEEG”, the “soluble on expression in E. coli” value was “not soluble”. In the case of “MGSDKIHHHHHHMNHNLTTLHPYPFAKMATLLADSTPAHSYDEIKLGIGEPKHAPPAFVLDVLRENLDKISHYPTTNGLFELRQTIAHWLEKRFFLNHVNPNTQVLPVMGTREAIFSIVQAVINHQTETISQTATLNQSPVVVMPNPFYQIYEGAAILAQATPYFIPCTADNGFKGDFRSVPKDVWMRTQLLFVCSPNNPTGSVMTMDDWEQLLRLSDQYGFIIASDECYSELYFDKAPIGLLQACAALGRHDFKNCLVFHSLSKRSNLPGLRSGFVAGDATILDSYLQYRTYQGCAMPIPHQLASIAAWEDEKHVAHNRALYQEKFALWMSELGALLDLRMPEAGFYFWIKAPEQFDGDDELFVKALYEHANIHALAGRYLSREVNGKNPGQGYVRIALVASVEESREAIRRIRQLLGA”, the “soluble on expression in E. coli” value is reported as “not soluble”. With “MGSDKIHHHHHHMNIAEIEVTHKVKEKEWKEFLSRSEYATVYHTPEWKKTLEESFGYKPYYLFVKDESDLIVGMLPLFYVKSKLTGNRLSSLPFSHISGPVGDKATKNFLISEAINLYKNLGASYLEIRDRVEDNRFLSKNMFSTYILELNPNIEEVWKQLHKGSVRRAIKKSEKSGVVVDTAKDIESLKEFYDLNCVGKRKIGVPCHPWKFFKNLFRFMNDYISLYVAKYQNNIIGGGIMIYYKDTVIYGYGAAHPHYLKLYPYNAFLWKSIKDACLSRYKYFDLGRAHYNVERGLMDFKRRWGTIEKKLYYSYYSKNKDLKILDMSGLKYRLGTKVIRKMPMPIYKKFSDRIFGSLG” the “soluble on expression in E. coli” value was “not soluble”. For “MGSDKIHHHHHHMNIDKLDYHSLIIFESISRHLNAGLVANELGMSISSVSRHLGILRDIFKDVLFIRRAQGFVLSDKAIQLLPYIKQLLHDYQVIKHNHIHFNPLTARGHFKIYAYNEFTYVINKVIHQYILPQAPNLTFEVRTLSSDCSRAIEHGEIDFAVVYERFKDHKIICEMFSPTEELFLIAKEGHAVFEDEFTLANLCQYDYFALDNYNDLPMPLLEQLGKTEGKAVNVLGATDNIAALSRHILDGRAISMSCNVFTREFYSLIKGIRTATLPSALTERLLKQITVGRTVGNYLIYSEINQSPTHHWLKQQLFNGIRDEWYLAMGR”, the “soluble on expression in E. coli” value was “not soluble”. For “MGSDKIHHHHHHMNIETLMIKNPPILSKEDRLGSAFKKINEGGIGRIIVANEKIEGLLTTRDLLSTVESYCKDSCSQGDLYHISTTPIIDYMTPNPVTVYNTSDEFTAINIMVTRNFGSLPVVDINDKPVGIVTEREFLLLYKDLDEIFPVKVFMSTKVQTIYKEVRLDQAVKLMLRRGFRRLPVIDDDNKVVGIVTVVNAIKQLAKAVDKLDPDYFYGKVVKDVMVTNLVTIDELASVNRAAAEMIVKRIGSLLILNKDNTIRGIITERDLLIALHHILVMEKFKEKL”, the “soluble on expression in E. coli” value was “not soluble”. With “MGSDKIHHHHHHMNILEKLFSLKRKVALVTGGGQGIGKAIAQALAAAGAAVLIMDINEETARRTVEEIKEKGGEADFYVGDVTKEEDCFGAVKKALDRWGKLDIGVNNAGIGDWCEAENYPVEKWKKVIDVNLVGVFLSAKAEFHAMKERKYGKIINIASMSGHIVNKPQKQTAYNASKAGVIHLTRSLAAEWAPYGIRVNSISPGYIRTPLIESPNVKDLVPLWLDMIPLGRLGEVDDLIGAAIFLASPASDYMTGHDLVIDGGYTVW” the “soluble on expression in E. coli” value was “not soluble”. With “MGSDKIHHHHHHMNILITGMAGFIGHAVAKRLAAEGHDIVGIDNLNDYYDVSLKQARLDDLAAWPNVRFERLDLADRAGMERLFADTRFERVIHLAAQAGVRYSLDNPHVYAQSNLVGHLNVLEGCRHQQVPHLIYASSSSVYGQNAQVPFSTADAVDHPISLYAATKKANELMTHSYSHLYGIPATGLRFFTVYGPWGRPDMAMFKFTRAILADEPLPVFNHGDLSRDFTYIDDIVEGVVRIMQAIPEADPDSPGASPDQSTAPFALYNIGHGSPVALMDFVHALERATGRTARCDFKPMQPGDVPRTWADTDALFEKVGYRPQVGVDEGVARFVEWYRSFHGI” the “soluble on expression in E. coli” value was “not soluble”. With “MGSDKIHHHHHHMNIQDYPDRDMLAIDLANHLAGELEATLFTHDSATLAVAGGTTPGPVFDVLCAADLDWHRVMVLPTDERCVPQDHSRANARLIAERLLVNRAASARYLPLYLPGAEPEDCLAEVEALLTPALPLSVLVLGMGEDMHTASLFAGMPGLAAALDADAPALAVARPETQPENRITLTAPVLNGALSKHLIIYGAAKRKALERAMSMHPEEAPIAAVLDGITVHWAE” the “soluble on expression in E. coli” value was “not soluble”. In the case of “MGSDKIHHHHHHMNKANTVDTSTEAVERVAKEISGLASREAVSMIQGWEDAFELYLKAADQLSALAAERDTLANQVEDCARECAKLAEEIQRLQAQLAETRASLYALEKGVWRDGYPDKISGSEWFIALLEDNRRVVLRSLPEEHSYDYTTADDTYLAAWKIKRWMQFPDANFIAPDTIVHTTVERIEQIKEEARNAALEEAAEVVARIKKPTIPPMFMGQTRAEAYDMGQHNACESKAELIRTLKSEPAPHPDCPECSGSGMRDSGGVQPWGDHIDAPCDCENAPAPRQSVQKAADNLAKGLRSAGYFIPSSIIFDVMVQKKSAS”, the “soluble on expression in E. coli” value is reported as “not soluble”.
